Assay [1] addresses T1, N-LC-biotinylated human α-CGRP (human (the filing says that cynomolgus …, N-LC-biotinylated)).
T1 construct: Captured on a streptavidin sensor chip; also called α-human/cyno; α-human
T1 peptide: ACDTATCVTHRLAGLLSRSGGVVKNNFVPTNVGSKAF
Description: SPR (Biacore 3000), Fab over N-biotin CGRP captured on SA chip, 25 °C. As for the experimental part: (§1) Interaction analysis was conducted at 25° C. and at 37° C. on a Biacore 3000™ system equipped with streptavidin-coated (SA) sensor chips (Biacore AB, Uppsala, Sweden) using standard Biacore running buffers (HBS-P or HBS-EP). N-LC-biotinylated human and rat α- and β-CGRPs were captured on individual flow cells at low levels (typically 100 response units) to provide the reaction surfaces, while an unmodified flow cell served as a reference channel. Purified Fab fragments of antibodies G1 and G2 were generated. Typically, Fabs were prepared as a two-fold serial dilution using 0.5 μM as the top concentration and injected for 1-min at 100 μl/min allowing up to two hours for the dissociation time. Surfaces were regenerated with a mixture of 50% v/v ethanol+25 mM NaOH for G1 Fab and 2:1 v/v Pierce Gentle Elution Buffer/4M NaCl for G2 Fab. […] The binding responses were double-referenced and fit globally to a simple model using BiaEvaluation v. 4.0 software. Affinities were deduced from the quotient of the kinetic rate constants (KD=koff/kₒₙ).
On the technique in general: Surface plasmon resonance follows binding to a sensor surface in real time, without labels.

Assay [2] concerns the target T2, N-LC-biotinylated human β-CGRP (human (the filing says that cynomolgus …, N-LC-biotinylated)).
T2 construct: Captured on a streptavidin sensor chip; also called β-human/cyno; β-human
T2 peptide: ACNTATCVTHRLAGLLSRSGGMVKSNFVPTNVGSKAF
Described as above. The method, then: as §1

Assay [3] has as its target T3, N-LC-biotinylated rat α-CGRP (rat, N-LC-biotinylated).
T3 construct: Captured on a streptavidin sensor chip; also called α-rat
T3 peptide: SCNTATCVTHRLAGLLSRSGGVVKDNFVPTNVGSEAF
The description is as above. The method, then: as §1

Assay [4] addresses T1, N-LC-biotinylated human α-CGRP. Description: SPR (Biacore 3000), Fab over N-biotin CGRP captured on SA chip, 37 °C. As for the experimental part: as §1
In assay [5] the target is T3, N-LC-biotinylated rat α-CGRP. The assay is described as above. As for the experimental part: as §1
Assay [6] concerns the target T4, N-LC-biotinylated rat β-CGRP (rat, N-LC-biotinylated (in the assay with CGRP on the chip)).
T4 construct: Captured on a streptavidin sensor chip for G1; also called β-rat
T4 peptide: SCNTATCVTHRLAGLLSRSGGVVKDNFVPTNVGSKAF
Briefly: SPR, reverse orientation assay format (data not shown).

Assay [7] concerns the target T1, N-LC-biotinylated human α-CGRP. Description: SPR (Biacore 3000), Fab over N-biotin-CGRP captured on SA chip, 25 °C. The method, then:
as §1

Assay [8] addresses T3, N-LC-biotinylated rat α-CGRP. Described as above. As for the experimental part:
as §1

In assay [9] the target is T1, N-LC-biotinylated human α-CGRP. Briefly: SPR (Biacore 3000), Fab over N-biotin-CGRP captured on SA chip, 37 °C. The method, then: as §1
The target in assay [10] is T2, N-LC-biotinylated human β-CGRP. The assay is described as above. The method, then: as §1
The target of assay [11] is T3, N-LC-biotinylated rat α-CGRP. Described as above. As for the experimental part: as §1
Assay [12] concerns the target T4, N-LC-biotinylated rat β-CGRP. Described as above. As for the experimental part:
as §1

Assay [13] shares this target. Briefly: SPR (Biacore 3000), Fab over N-biotin-CGRP captured on SA chip, 37 °C; 37 C; upper bound, 20-min dissociation. The method, then:
as §1
The dissociation of G1 Fab from α-human, β-human, and […] occurs very slowly. As such, the offrate (koff) cannot be measured accurately unless the dissociation phase is monitored for a very long time. As a general rule-of-thumb, the binding response decays at least 5% over the allowed dissociation time for the report of an accurate offrate. […]

In assay [14] the target is T1, N-LC-biotinylated human α-CGRP. Briefly: SPR (Biacore 3000), side-by-side on the same chip at 37 °C, 20-min dissociation time; 37 C; side-by-side on the same chip; 20-min dissociation. The method, then:
as §1
The results for antibody G1 are expressed in Table 1 below. […] Human and cynomolgus monkey have identical sequences; therefore, the human data also apply to cynomolgus.

Assay [15] shares this target. Briefly: SPR (Biacore 3000), side-by-side on the same chip, 20-min dissociation time, 37 °C; 37 C; side-by-side on the same chip; 20-min dissociation; rounded figure for three CGRPs. The method, then: as §1
(§2) The dissociation of G1 Fab from α-human, β-human, and […] occurs very slowly. As such, the offrate (koff) cannot be measured accurately unless the dissociation phase is monitored for a very long time. As a general rule-of-thumb, the binding response decays at least 5% over the allowed dissociation time for the report of an accurate offrate. However, monitoring long dissociation times on the Biacore is hindered by baseline drift, which is particularly challenging when working at the low surface capacities required for kinetic analyses. […] As a result, the offrates for β-CGRPs cannot be resolved as accurately as those for α-CGRPs.

Assay [16] has as its target T2, N-LC-biotinylated human β-CGRP. The assay is described as above. As for the experimental part:
as §1, §2

The target in assay [17] is T4, N-LC-biotinylated rat β-CGRP. The assay is described as above. As for the experimental part: as §1, §2
The target in another assay is T5, 125I-human α-CGRP (human, 125I label (position not given)).
T5 peptide: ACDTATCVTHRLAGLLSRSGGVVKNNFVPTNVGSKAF
Briefly: competition radioligand binding: 125I-human α-CGRP on SK-N-MC cell membranes (CGRP1-receptor), 25 °C; IC50 given as binding sites (IgG value multiplied by 2); 25 C; radioligand competition on SK-N-MC membranes; whole IgG, IC50 said to be converted to binding sites. The method, then: A binding assay was performed to measure the IC₅₀ of anti-CGRP G1 antibody in blocking human α-CGRP from binding to the CGRP1-receptor. Membranes (25 μg) from SK-N-MC cells were incubated for 90 minutes at 25° C. in incubation buffer (50 mM Tris-HCl, pH 7.4, 5 mM MgCl₂, 0.1% BSA) containing […] ¹²⁵I-human α-CGRP and varying concentrations of anti-CGRP antibody (0.015 nM-33 nM) in a total volume of 1 ml. Incubation was terminated by filtration through a glass microfiber filter (GF/B, 1 μm) which had been blocked with 0.5% polyethylenimine. The protein-bound radioactivity was determined in a gamma counter.

This note sets out measurements from US20120225075A1 (LABRYS BIOLOGICS, published 2012).

B1: Fab fragment of antibody G2 (Fab, V domains shown)
VH: EVQLQQSGPELVKPGASVKMSCKASGYTFTSSVMHWVKQKPGQGLEWIGYINPYNDGTKYNEKFKGKATLTSDKSSSTAYMELSSLTSEDSAVYYCAKGGNDGYWGQGTTLTVSS
VL: EIVLTQSPTTMAASPGEKITITCSASSSISSIYLHWYQQKPGFSPKVLIYRASNLASGVPARFSGSGSGTSYSLTIGTMEAEDVATYYCQQGSTIPFTFGSGTKLEIKR
notes: also called G2 Fab; G2 antibody
On to B1, for which the Kd (as a rule, the equilibrium constant for the complex coming apart) in assay [1] was 19.1 nM; in [2], 19.9 nM; in assay [3], 0.9 nM; in assay [4], 41.9 nM; in assay [5], 3.4 nM. For the same molecule, the “T1/2” value in assay [1] was determined as 10.1 min; in assay [2] it was 7.13 min; in [3] it was 54 min; in assay [4] it was 2.96 min; in assay [5], 6.8 min. Moreover, the koff (commonly the first-order rate constant of dissociation) in [1] was 0.00115 s⁻¹; in assay [2], 0.00162 s⁻¹; in assay [3], 0.000214 s⁻¹; in assay [4], 0.0039 s⁻¹; in assay [5], 0.0017 s⁻¹. In addition, the kon (usually the second-order rate constant of association) in [1] is 60300 M⁻¹ s⁻¹; in [2] it was 81400 M⁻¹ s⁻¹; in [3] it was 231000 M⁻¹ s⁻¹; in assay [4], 93000 M⁻¹ s⁻¹; in assay [5], 500000 M⁻¹ s⁻¹.

B2: antibody G2 (form in the reverse orientation assay not stated) (antibody, V domains shown)
VH: EVQLQQSGPELVKPGASVKMSCKASGYTFTSSVMHWVKQKPGQGLEWIGYINPYNDGTKYNEKFKGKATLTSDKSSSTAYMELSSLTSEDSAVYYCAKGGNDGYWGQGTTLTVSS
VL: EIVLTQSPTTMAASPGEKITITCSASSSISSIYLHWYQQKPGFSPKVLIYRASNLASGVPARFSGSGSGTSYSLTIGTMEAEDVATYYCQQGSTIPFTFGSGTKLEIK
notes: Anti-rat CGRP mouse monoclonal antibody
For B2, the binding result in assay [6] was “binds”.

B3: Fab fragment of antibody G1 (Fab, V domains shown)
VH: EVQLVESGGGLVQPGGSLRLSCAASGFTFSNYWISWVRQAPGKGLEWVAEIRSESDASATHYAEAVKGRFTISRDNAKNSLYLQMNSLRAEDTAVYYCLAYFDYGLAIQNYWGQGTLVTVSS
VL: EIVLTQSPATLSLSPGERATLSCKASKRVTTYVSWYQQKPGQAPRLLIYGASNRYLGIPARFSGSGSGTDFTLTISSLEPEDFAVYYCSQSYNYPYTFGQGTKLEIK
notes: also called G1 Fab; G1 antibody
B3: the “T1/2” value in [7] was 1480 min; in assay [8] it was 187 min; in assay [9], 318 min; in assay [10], 166 min; in assay [11] it was 28.8 min; in [12] it was 147 min. Further, the koff was 7.8e-06 s⁻¹ in assay [7]; 6.18e-05 s⁻¹ in [8]; 3.63e-05 s⁻¹ in [9]; under 6.98e-05 s⁻¹ in assay [10]; 0.000399 s⁻¹ in [11]; under 7.85e-05 s⁻¹ in assay [12]. Moreover, the kon in assay [7] was found to be 186000 M⁻¹ s⁻¹; in assay [8], 50800 M⁻¹ s⁻¹; in [9], 587000 M⁻¹ s⁻¹; in [10], 451000 M⁻¹ s⁻¹; in [11], 155000 M⁻¹ s⁻¹; in assay [12], 516000 M⁻¹ s⁻¹. In addition, the Kd in [10] was under 0.155 nM; in assay [12], under 0.152 nM; in [13], under 0.15 nM; in assay [14], 0.163 nM; in [15], about 0.15 nM; in assay [16], about 0.15 nM. Moreover, in assay [17], the Kd was about 0.15 nM.

B4: anti-CGRP G1 antibody (whole IgG) (antibody, V domains shown)
VH: EVQLVESGGGLVQPGGSLRLSCAASGFTFSNYWISWVRQAPGKGLEWVAEIRSESDASATHYAEAVKGRFTISRDNAKNSLYLQMNSLRAEDTAVYYCLAYFDYGLAIQNYWGQGTLVTVSS
VL: EIVLTQSPATLSLSPGERATLSCKASKRVTTYVSWYQQKPGQAPRLLIYGASNRYLGIPARFSGSGSGTDFTLTISSLEPEDFAVYYCSQSYNYPYTFGQGTKLEIKR
notes: also called antibody G1; anti-CGRP antibody
Take B4: the IC50 – broadly, the concentration needed to halve the response being measured – with 125I-human α-CGRP is 1.8 nM.
